Results as given in the supplement of paper PMC12042874.
± gives the uncertainty stated by the source.

Assay: amyloid nucleation score (Sup35N fusion, yeast selection) (log enrichment); library NNK2; higher = more nucleation; inactive = no reads after selection
Method in brief: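 Libraries of peptides of 20 random codons fused to Sup35N were expressed in psi-negative yeast and induced 24 hours with 100 μM copper sulfate. Selection was 7 days at 30°C on medium lacking adenine and uracil, and plasmid inserts were Illumina-sequenced before and after selection. Nucleation score is the DiMSum log enrichment of output over input reads, centred on the mode score of non-aggregating sequences, and sequences with under 100 input reads were left out.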
In the case of YFSSQLDLRRIMLLLSRYV, the amyloid nucleation score is reported as 0.721 ± 0.54. YFVVL showed an amyloid nucleation score of -1.78 ± 0.62. With YFYITTCSGMSTDVFMNLLT the amyloid nucleation score was -0.422 ± 1. For YGAWRFGRLALSRRPSYCGM, the amyloid nucleation score was -0.271 ± 0.27. YGDYMFHPETAVSL showed an amyloid nucleation score of 4.49 ± 0.064. With YGFGRHKNGAAMPTMYFAMS the amyloid nucleation score was -0.014 ± 0.41. For YGFKGTSLR, the amyloid nucleation score was -0.506 ± 0.28. YGFSGMMNSFSFHGC gave an amyloid nucleation score of 6.07 ± 0.083. YGKIL gave an amyloid nucleation score of -0.956 ± 1. With YGPWSCLI the amyloid nucleation score was “inactive”. Work on YGQIITSEKNRRNYMCPFSG yielded an amyloid nucleation score of -0.393 ± 1.1. For YGSESVGGSQRSGNLSWGTG, the amyloid nucleation score was 0.257 ± 0.64. Work on YGSFIWWLPCNGMGLKCSRS yielded an amyloid nucleation score of 1.67 ± 0.12. Substance YGSFWTFRFLGT has an amyloid nucleation score of 4.12 ± 0.073. For YGTKQVGKNRFFEHSYYYWP, the amyloid nucleation score was “inactive”. With YGTWKVRKCGLSIFGVGGPD the amyloid nucleation score was -0.303 ± 0.63. Work on YGYCIISHTLNLLLGQYLCY yielded an amyloid nucleation score of 4.99 ± 0.068. Substance YHCCFRSKAGFQESQDITIR has an amyloid nucleation score of -0.18 ± 0.24. For YHFFKCRPCSFSWLITGMVK, the amyloid nucleation score was -0.287 ± 0.63. YHIWRYHATSSHTFARFSSV showed an amyloid nucleation score of 1.62 ± 0.51. For YHLSELVMRREWSDWYNVCG, the amyloid nucleation score was 0.126 ± 0.43. Substance YHNWSA has an amyloid nucleation score of 0.025 ± 0.23. For YHTRIYDL, the amyloid nucleation score was 0.576 ± 0.45. For YIAILFYMC, the amyloid nucleation score was 7.2 ± 0.044. YICVFLDSYLGHMYRPHWRV showed an amyloid nucleation score of 1.91 ± 0.13. YIGVIT showed an amyloid nucleation score of 5.38 ± 0.1. Work on YILSWARFIEYDYLTPRVYS yielded an amyloid nucleation score of 0.356 ± 0.57. For YIRCYRNV, the amyloid nucleation score was -0.536 ± 0.33. For YISMKWEVAHNYWWILSGIP, the amyloid nucleation score was 0.444 ± 0.25. YIVPSKRIWFFGLSSNGDST showed an amyloid nucleation score of 0.102 ± 0.41. YIWILWIAMEQNKSWRGQHD gave an amyloid nucleation score of 4.44 ± 0.12. For YIWYCRMPTSSNTVSNL, the amyloid nucleation score was “inactive”. YIYLNEKFCITYMRESWNCC showed an amyloid nucleation score of 0.651 ± 0.39. YIYRNITRLQKSCSIIISGR showed an amyloid nucleation score of -1.88 ± 0.64. For YIYYNYKGLSVVFLSNSNMW, the amyloid nucleation score was 2.88 ± 0.12. With YKAAIGFCINQCLRHHVTKR the amyloid nucleation score was “inactive”. YKDHGCNDSWK gave an amyloid nucleation score of -0.572 ± 0.44. Substance YKEVWY has an amyloid nucleation score of -0.284 ± 0.45. With YKFRYWAYFFSDVAGVI the amyloid nucleation score was -1.75 ± 0.75. With YKLRSQ the amyloid nucleation score was -0.184 ± 0.27. YLCGFNIVPHRYINFRVWTE gave an amyloid nucleation score of 4.39 ± 0.11. With YLGCRDPTRCFLLVHVPDLY the amyloid nucleation score was -0.127 ± 1. With YLGGMGSICDVNPCLYNRFL the amyloid nucleation score was 0.655 ± 0.16. Substance YLGLDARLI has an amyloid nucleation score of 0.661 ± 0.8. YLICD showed an amyloid nucleation score of -0.578 ± 0.76. With YLLALRCLFLLYRVYWFSIE the amyloid nucleation score was -0.129 ± 0.39. In the case of YLLLLIMDLFKGRACHPRHA, the amyloid nucleation score is reported as “inactive”. For YLLMTKCVTVAERMGIMISC, the amyloid nucleation score was -0.95 ± 1. For YLQVWYTREFYIFRGKMDLL, the amyloid nucleation score was “inactive”. YLRMDLVKWKWVGDGSQVC gave an amyloid nucleation score of 2.86 ± 0.08. YLSGLIIS gave an amyloid nucleation score of -0.593 ± 1.1. With YLSGYRLRTVVAVDTGMWYV the amyloid nucleation score was 2.65 ± 0.13. YLSRWYLKILQVSWRSVHSS gave an amyloid nucleation score of -0.712 ± 0.36. Substance YLTNNLVLWFDICDEERYWW has an amyloid nucleation score of 5.45 ± 0.059. YLVFKYTRGMFLVLCTPIWV showed an amyloid nucleation score of -1.17 ± 0.39. In the case of YLWDTIYIDLSVLLVLATSW, the amyloid nucleation score is reported as 0.21 ± 0.54. YLWPALPR showed an amyloid nucleation score of 0.142 ± 0.46. For YLWWMKSNY, the amyloid nucleation score was “inactive”. In the case of YLYKCNM, the amyloid nucleation score is reported as “inactive”. YMCRVYMSNSINDFDLPHLL showed an amyloid nucleation score of 2.06 ± 0.29. Substance YMDMWGR has an amyloid nucleation score of -0.81 ± 0.41. With YMFDFYFVLYESKYAWINPK the amyloid nucleation score was “inactive”. With YMFYPNCRSRC the amyloid nucleation score was 0.59 ± 0.15. In the case of YMIYCFITVGCFISTLHYCG, the amyloid nucleation score is reported as 1.68 ± 0.15. In the case of YMLTIRFICFGAVGHSDMHE, the amyloid nucleation score is reported as 0.672 ± 0.18. With YMLWGWFFLNGFYTVIGIVP the amyloid nucleation score was “inactive”. YMRGITHSAGCSSLAINVEH gave an amyloid nucleation score of -1.23 ± 1.1. Work on YMSIHSKAGMVSLDLKCLCT yielded an amyloid nucleation score of -0.427 ± 1. For YNGLMNISIATMC, the amyloid nucleation score was -1.17 ± 0.74. For YNIIYWFLYKVQAWSVCSWG, the amyloid nucleation score was 5.31 ± 0.077. YNKGNACISGYYGCSLA showed an amyloid nucleation score of 7.41 ± 0.083. With YNKLGCTARFTRAMWTFCGV the amyloid nucleation score was 0.066 ± 1. Work on YNKRVSWKYWMWHEYAMRGW yielded an amyloid nucleation score of 5.21 ± 0.057. In the case of YNKWLMASLPRIVGT, the amyloid nucleation score is reported as -0.47 ± 1.1. With YNLFYELNLVLIP the amyloid nucleation score was 6.137 ± 0.05. For YNLNCHLFSAWTFNYKIAFL, the amyloid nucleation score was 5.958 ± 0.043. Substance YNMMLSVWDSYVLLVECVME has an amyloid nucleation score of -0.801 ± 0.31. YNPNCPCICS showed an amyloid nucleation score of 6.823 ± 0.026. Work on YNQTVCDFLGKRLWGDVWRS yielded an amyloid nucleation score of 0.26 ± 0.36. For YNVDDCSHRDRFIDNRDSEC, the amyloid nucleation score was “inactive”. With YNVDTVYLRGSLLRSYDWCF the amyloid nucleation score was -2.32 ± 1.1. Work on YNWHMSHFYDLGP yielded an amyloid nucleation score of 4.99 ± 0.099. YNYASYLVHIALLFLSYIRR gave an amyloid nucleation score of 0.236 ± 1.1. YNYLLLSMVPSSILSRSYVQ showed an amyloid nucleation score of -0.161 ± 1.1. YPCKSDF gave an amyloid nucleation score of -1.66 ± 0.45. For YPQGVGSDLTS, the amyloid nucleation score was 0.953 ± 0.19.
